{"source": "paper PMC7303358", "about": "“The Lotus japonicus Ubiquitin Ligase SIE3 Interacts With the Transcription Factor SIP1 and Forms a Homodimer” (Frontiers in Plant Science, 2020)", "target": "the molecule itself", "assay": "SDS-PAGE without DTT in the loading buffer and immunoblot (band of dimer size); SIE3::GFP leaf extract in native buffer, incubated with 10 μM ATP at 4°C with 0 or 100 mM DTT; stopped with SDS loading buffer without DTT; anti-GFP blot"}
{"protein": "SIE3::GFP (natural protein, L. japonicus, UniProt K0BV36 1-386, looked up, SIE3 of Lotus japonicus fused to GFP; the cloning of this construct is not described; Detected with anti-GFP antibody; monomer about 68.5 kDa, upper band about 137 kDa; source: N. benthamiana leaves, total proteins extracted in native buffer) MELSTIKDAFDRVTKKQKSSSSKTQEVIDQIRQEIENVLDTMQSVNNTDHVLDHKTVLNELKASLLQTAPLSQMEGTQKELNVALSKYGKLLEKNFNTDISKAYRNIDIDVHTLNQIIANHFYRQGLFEIGDHFLSVVGEPESAAVMKSPFLEMYQILEAMKNQDLEPALKWATSNSDKLAQSGSDIVLKLHSMQFVKILQNGSRDEALHYARTYLSPFASSHIADIQKLMGSLLWTGKLDSSPYHALLSPSNWDRLAEELKRQFCNLLGQSYNSPLSVTISAGVQALPPLLKFMNVMVGKKQEWQTMNQLPVPVELDSELQFHSIFVCPVSKEQATEDNPPMLMSCGHVLCKQSISKMSKNGSKLFKCPYCPFDVDAALCKQLYF", "values": [{"measurement": "stoichiometry N", "value": 2}]}
